In publication PMC5138618 one finds binding in percent of wild type CagL data, which are given here for two molecules.

Common to all, as to assay: ELISA; ELISA-like multiwell assay: wells coated overnight with 100 ng/well recombinant human integrin heterodimer in 100 mM sodium carbonate pH 9.5; blocked with FCS-containing or FCS-free blocker; purified CagL (2.5, 5, 10, 20 ng/well; 10 ng for the comparison of mutants) incubated 3 h, washed; bound CagL detected with anti-CagL antiserum AK271; values relative to wild type CagL set to 100% after background subtraction
A general note: In an ELISA, binding on a coated surface is turned into a signal by an enzyme label.

Test [1] concerns the target recombinant human integrin αvβ5 (human) (UniProt P06756).
In test [2] the target is recombinant human integrin α5β1 (human) (UniProt P08648).
Chain of recombinant human integrin α5β1 (human) (P08648 42-1049, chain 1 of 2): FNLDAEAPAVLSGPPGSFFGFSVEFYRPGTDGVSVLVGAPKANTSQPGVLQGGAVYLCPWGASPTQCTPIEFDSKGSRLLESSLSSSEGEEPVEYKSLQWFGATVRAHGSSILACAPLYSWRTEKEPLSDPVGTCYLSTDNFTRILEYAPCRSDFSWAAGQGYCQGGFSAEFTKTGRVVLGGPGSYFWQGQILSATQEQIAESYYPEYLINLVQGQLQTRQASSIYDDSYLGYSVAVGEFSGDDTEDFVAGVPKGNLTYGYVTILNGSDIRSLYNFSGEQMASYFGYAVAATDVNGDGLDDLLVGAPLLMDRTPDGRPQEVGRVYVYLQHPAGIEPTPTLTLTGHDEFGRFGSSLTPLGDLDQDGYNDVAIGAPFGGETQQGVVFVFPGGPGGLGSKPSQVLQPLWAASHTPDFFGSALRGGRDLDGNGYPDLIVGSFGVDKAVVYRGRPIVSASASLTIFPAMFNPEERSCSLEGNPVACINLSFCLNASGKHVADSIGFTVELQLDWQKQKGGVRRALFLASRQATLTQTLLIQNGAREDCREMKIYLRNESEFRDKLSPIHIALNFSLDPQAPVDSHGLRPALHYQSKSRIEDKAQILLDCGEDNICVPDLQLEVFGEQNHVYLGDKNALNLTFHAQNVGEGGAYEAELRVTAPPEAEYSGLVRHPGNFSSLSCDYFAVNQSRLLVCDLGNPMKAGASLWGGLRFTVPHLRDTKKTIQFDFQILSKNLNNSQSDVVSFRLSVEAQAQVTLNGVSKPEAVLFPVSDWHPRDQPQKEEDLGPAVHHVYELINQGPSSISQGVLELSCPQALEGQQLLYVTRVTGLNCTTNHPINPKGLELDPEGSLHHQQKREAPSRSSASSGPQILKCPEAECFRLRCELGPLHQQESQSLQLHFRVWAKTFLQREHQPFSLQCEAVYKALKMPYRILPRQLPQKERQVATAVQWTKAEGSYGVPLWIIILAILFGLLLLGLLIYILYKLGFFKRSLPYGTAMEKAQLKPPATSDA
Chain of recombinant human integrin α5β1 (human) (P05556 21-728, chain 2 of 2, further chain): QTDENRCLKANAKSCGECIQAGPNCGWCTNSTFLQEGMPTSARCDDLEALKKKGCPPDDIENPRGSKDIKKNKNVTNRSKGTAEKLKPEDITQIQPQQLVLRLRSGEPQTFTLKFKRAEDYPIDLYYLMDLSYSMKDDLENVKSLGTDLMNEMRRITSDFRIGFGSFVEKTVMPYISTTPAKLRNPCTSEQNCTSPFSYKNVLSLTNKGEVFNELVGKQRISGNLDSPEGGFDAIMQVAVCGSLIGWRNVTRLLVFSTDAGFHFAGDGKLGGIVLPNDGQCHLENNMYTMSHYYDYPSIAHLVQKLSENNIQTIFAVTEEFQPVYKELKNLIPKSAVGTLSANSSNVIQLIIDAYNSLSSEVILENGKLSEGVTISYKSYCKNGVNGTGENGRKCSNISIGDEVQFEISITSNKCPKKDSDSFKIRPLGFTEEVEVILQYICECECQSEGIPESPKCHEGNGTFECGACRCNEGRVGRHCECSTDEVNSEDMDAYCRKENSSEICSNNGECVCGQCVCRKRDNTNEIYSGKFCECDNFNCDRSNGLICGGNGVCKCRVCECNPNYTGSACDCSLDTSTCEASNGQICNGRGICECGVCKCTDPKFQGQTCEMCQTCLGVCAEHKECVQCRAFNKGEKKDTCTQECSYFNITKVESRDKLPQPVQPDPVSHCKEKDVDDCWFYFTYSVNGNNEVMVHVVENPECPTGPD
Test [3] deals with recombinant human integrin αvβ6 (human) (UniProt P06756).
Chain of recombinant human integrin αvβ6 (human) (P06756 31-1048, chain 1 of 2): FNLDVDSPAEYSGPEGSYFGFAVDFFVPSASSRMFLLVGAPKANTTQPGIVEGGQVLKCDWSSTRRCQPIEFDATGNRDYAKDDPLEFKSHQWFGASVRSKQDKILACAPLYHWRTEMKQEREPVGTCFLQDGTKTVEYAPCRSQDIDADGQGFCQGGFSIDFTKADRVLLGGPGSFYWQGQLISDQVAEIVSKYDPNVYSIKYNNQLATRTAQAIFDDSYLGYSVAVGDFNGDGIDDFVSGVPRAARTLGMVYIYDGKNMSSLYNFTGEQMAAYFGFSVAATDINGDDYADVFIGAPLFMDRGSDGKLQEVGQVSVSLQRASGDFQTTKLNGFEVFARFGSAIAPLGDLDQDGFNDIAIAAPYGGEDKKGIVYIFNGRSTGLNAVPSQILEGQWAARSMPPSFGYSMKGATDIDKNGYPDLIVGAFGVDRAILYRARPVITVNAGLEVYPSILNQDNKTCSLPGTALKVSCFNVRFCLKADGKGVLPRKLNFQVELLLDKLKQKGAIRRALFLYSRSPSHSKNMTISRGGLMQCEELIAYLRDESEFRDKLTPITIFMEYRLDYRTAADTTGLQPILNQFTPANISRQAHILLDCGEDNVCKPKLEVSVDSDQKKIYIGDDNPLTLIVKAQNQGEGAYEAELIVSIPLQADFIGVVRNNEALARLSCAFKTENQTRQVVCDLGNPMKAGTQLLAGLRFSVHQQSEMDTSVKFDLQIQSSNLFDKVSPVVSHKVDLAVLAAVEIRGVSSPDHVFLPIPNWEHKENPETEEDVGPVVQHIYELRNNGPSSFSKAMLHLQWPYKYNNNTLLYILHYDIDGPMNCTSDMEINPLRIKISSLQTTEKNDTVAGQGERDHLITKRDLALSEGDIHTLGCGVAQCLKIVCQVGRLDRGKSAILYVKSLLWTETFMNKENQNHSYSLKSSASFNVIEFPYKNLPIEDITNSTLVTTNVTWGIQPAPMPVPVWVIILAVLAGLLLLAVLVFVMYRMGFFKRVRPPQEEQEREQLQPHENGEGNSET
Chain of recombinant human integrin αvβ6 (human) (P18564 22-709, chain 2 of 2, further chain): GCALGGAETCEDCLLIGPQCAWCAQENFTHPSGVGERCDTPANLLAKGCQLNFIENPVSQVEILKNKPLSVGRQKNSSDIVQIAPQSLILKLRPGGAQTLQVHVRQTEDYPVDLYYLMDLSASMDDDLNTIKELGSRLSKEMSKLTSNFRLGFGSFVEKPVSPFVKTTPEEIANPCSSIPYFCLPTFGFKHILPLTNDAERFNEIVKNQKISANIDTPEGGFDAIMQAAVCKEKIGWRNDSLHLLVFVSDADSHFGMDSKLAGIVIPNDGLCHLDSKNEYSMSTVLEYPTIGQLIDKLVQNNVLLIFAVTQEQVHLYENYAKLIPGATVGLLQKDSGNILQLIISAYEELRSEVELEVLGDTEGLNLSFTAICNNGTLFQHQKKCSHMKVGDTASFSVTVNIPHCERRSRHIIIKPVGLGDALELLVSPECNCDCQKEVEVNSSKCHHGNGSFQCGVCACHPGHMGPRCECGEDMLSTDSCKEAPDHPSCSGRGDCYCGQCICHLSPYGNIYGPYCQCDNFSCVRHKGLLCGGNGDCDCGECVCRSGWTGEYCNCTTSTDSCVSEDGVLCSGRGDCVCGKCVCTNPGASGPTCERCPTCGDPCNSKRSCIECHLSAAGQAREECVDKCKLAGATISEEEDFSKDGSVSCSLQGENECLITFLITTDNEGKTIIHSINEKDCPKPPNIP

Some results are limits rather than exact numbers.

Chain of recombinant human integrin αvβ5 (human) (P06756 31-1048, chain 1 of 2): as the sequence (P06756 31-1048, chain 1 of 2) above
Chain of recombinant human integrin αvβ5 (human) (P18084 24-719, chain 2 of 2, further chain): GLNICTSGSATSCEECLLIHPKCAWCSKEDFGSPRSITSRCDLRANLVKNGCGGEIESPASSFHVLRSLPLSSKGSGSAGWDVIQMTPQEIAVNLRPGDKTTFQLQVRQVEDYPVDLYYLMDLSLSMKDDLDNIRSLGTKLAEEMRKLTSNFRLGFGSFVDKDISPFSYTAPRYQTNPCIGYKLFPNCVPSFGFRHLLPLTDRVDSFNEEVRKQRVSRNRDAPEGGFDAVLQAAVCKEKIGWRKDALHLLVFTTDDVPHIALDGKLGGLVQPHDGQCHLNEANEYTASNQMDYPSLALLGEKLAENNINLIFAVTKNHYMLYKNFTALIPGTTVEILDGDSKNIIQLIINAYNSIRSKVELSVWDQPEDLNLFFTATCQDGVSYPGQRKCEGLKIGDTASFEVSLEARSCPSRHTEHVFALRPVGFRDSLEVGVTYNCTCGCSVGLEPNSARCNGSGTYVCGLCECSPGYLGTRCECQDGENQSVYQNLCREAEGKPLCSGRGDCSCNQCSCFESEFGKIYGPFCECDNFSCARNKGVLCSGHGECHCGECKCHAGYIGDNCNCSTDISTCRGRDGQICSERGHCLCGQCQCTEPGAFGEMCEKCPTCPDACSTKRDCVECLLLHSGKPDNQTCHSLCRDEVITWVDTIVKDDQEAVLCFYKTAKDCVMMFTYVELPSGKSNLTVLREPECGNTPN

B1: CagL^ΔRGDΔTASLI double motif deletion, recombinant (natural protein)
chain: EDITSGLKQLDSTYQETNQQVLKNLDEIFSTTSPSANNEMGEEDALNIKKAAIALLALLKANFEANELFFISEDVIFKTYMSSPELLLTYMKINPLDQNTAEQQCGISDKVLVLYCEGKLKIEQEKQNIRERLETSLKAYQSNIGGTASQTLVESLKNKNFIKGIRKLMLAHNKVFLNYLEELDALERSLEQSKRQYLQERQSSKIIVK
With B1, the binding in percent of wild type CagL in test [1], in test [2] and in test [3] was below 36% each time.

B2: CagL^ΔRGD motif variant, recombinant (natural protein)
chain: EDITSGLKQLDSTYQETNQQVLKNLDEIFSTTSPSANNEMGEEDALNIKKAAIALLALLKANFEANELFFISEDVIFKTYMSSPELLLTYMKINPLDQNTAEQQCGISDKVLVLYCEGKLKIEQEKQNIRERLETSLKAYQSNIGGTASLITASQTLVESLKNKNFIKGIRKLMLAHNKVFLNYLEELDALERSLEQSKRQYLQERQSSKIIVK
For the molecule B2, the binding in percent of wild type CagL in test [1], in test [2] and in test [3] was below 50% throughout.
